Changes are numbered by the printed parent chain.
T1: D275N- and R277T-mutant hPIV-3 HN, expressed on transfected HEK293T cells (human parainfluenza virus 3 (hPIV-3), UniProt P08492 1-572)
T1 construct: also called mut HN3
T1 chain: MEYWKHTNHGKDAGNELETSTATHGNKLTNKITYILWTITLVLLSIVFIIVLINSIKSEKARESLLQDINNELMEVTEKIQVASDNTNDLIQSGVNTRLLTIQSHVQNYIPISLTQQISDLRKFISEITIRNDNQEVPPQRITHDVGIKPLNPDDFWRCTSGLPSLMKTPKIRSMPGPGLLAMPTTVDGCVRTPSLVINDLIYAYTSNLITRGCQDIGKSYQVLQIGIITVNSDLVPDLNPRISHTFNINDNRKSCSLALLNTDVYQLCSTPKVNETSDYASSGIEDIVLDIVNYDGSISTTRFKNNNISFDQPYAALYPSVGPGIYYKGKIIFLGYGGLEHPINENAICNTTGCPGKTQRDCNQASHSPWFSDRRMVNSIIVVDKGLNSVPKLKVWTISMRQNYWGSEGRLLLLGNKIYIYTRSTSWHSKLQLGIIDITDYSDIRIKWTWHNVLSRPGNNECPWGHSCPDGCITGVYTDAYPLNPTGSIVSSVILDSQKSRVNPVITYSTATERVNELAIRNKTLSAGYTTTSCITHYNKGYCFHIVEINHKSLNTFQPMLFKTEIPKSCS

T2: hPIV-3 hemagglutinin-neuraminidase (HN), expressed on transfected HEK293T cells (human parainfluenza virus 3 (hPIV-3), UniProt P08492 1-572)
T2 construct: also called hPIV-3 HN; HN3
T2 chain: T1 chain with N275D, T277R

B1: bivalent VHH A2R3-55 (VHH)
chain: QVQLQESGGGLVQAGGSLRLSCAASGSIDRIDAMGWSRQAPGKQRELVATITTGGITNYAVSVKGRFTISRDNAKNTVYLQMNSLKPEDTAVYYCNAQGAPSWGLYEDYWGQGTQVTVSSGGGGSGGGGSGGGGSQVQLQESGGGLVQAGGSLRLSCAASGSIDRIDAMGWSRQAPGKQRELVATITTGGITNYAVSVKGRFTISRDNAKNTVYLQMNSLKPEDTAVYYCNAQGAPSWGLYEDYWGQGTQVTVSS
notes: also called bivalent A2R3-55
B2: bivalent VHH A2R3-57-57 (VHH)
chain: QVQLQESGGGLVQPGGSLRLSCAASGSIFSTDAMGWYRQPPGKQRELVATITSGGSTNYVDSVKGRFTISRDNAKNTVYLQMNSLKPEDTAVYYCALHQTTGWGLYNDYWGQGTQVTVSSGGGGSGGGGSGGGGSQVQLQESGGGLVQPGGSLRLSCAASGSIFSTDAMGWYRQPPGKQRELVATITSGGSTNYVDSVKGRFTISRDNAKNTVYLQMNSLKPEDTAVYYCALHQTTGWGLYNDYWGQGTQVTVSS
notes: also called bivalent A2R3-57
B3: humanized A2R3-59-59 bivalent construct version 1 (VHH)
chain: DVQLVESGGGLVQPGGSLRLSCAASGSISGINGMGWYRQAPGKQRELVAAITSGGSTNYADSVKGRFTISRDNAKNTVYLQMNSLRPEDTAVYYCYVSSTPSWGLYDDYWGQGTLVTVSSGGGGSGGGGSGGGGSEVQLVESGGGLVQPGGSLRLSCAASGSISGINGMGWYRQAPGKQRELVAAITSGGSTNYADSVKGRFTISRDNAKNTVYLQMNSLRPEDTAVYYCYVSSTPSWGLYDDYWGQGTLVTVSS
notes: also called A2R3-h59-59
B4: bivalent VHH A2R3-60-60 (VHH)
chain: QVQLQESGGGLVQPGGSLRLDCAASGTTVSINGMGWYRQAPGKQREFVALSTTGGVTNYADSVKGRFTISMDNAKKTVALQMNSLKPEDTAVYYCNAVASPSWGLYDDYWGQGTQVTVSSGGGGSGGGGSGGGGSQVQLQESGGGLVQPGGSLRLDCAASGTTVSINGMGWYRQAPGKQREFVALSTTGGVTNYADSVKGRFTISMDNAKKTVALQMNSLKPEDTAVYYCNAVASPSWGLYDDYWGQGTQVTVSS
notes: also called bivalent A2R3-60
B5: humanized A2R3-60-Fc construct version 1 (Fc fusion)
chain: DVQLVESGGGLVQPGGSLRLSCAASGTTVSINGMGWYRQAPGKQREFVALSTTGGVTNYADSVKGRFTISRDNAKNTVYLQMNSLRPEDTAVYYCNAVASPSWGLYDDYWGQGTLVTVSSGGGGSGGGGSDKTHTCPPCPAPEAAGGPSVFLFPPKPKDTLMISRTPEVTCVVVDVSHEDPEVKFNWYVDGVEVHNAKTKPREEQYNSTYRVVSVLTVLHQDWLNGKEYKCKVSNKALGAPIEKTISKAKGQPREPQVYTLPPSRDELTKNQVSLTCLVKGFYPSDIAVEWESNGQPENNYKTTPPVLDSDGSFFLYSKLTVDKSRWQQGNVFSCSVMHEALHNHYTQKSLSLSPG
notes: also called A2R3-h60-Fc; h60-Fc
B6: VHH A2R3-57 (VHH)
VHH: QVQLQESGGGLVQPGGSLRLSCAASGSIFSTDAMGWYRQPPGKQRELVATITSGGSTNYVDSVKGRFTISRDNAKNTVYLQMNSLKPEDTAVYYCALHQTTGWGLYNDYWGQGTQVTVSS
notes: also called 2AR-57
B7: VHH A2R3-59 (VHH)
VHH: QVQLQESGGGLVQPGGSLRLSCAASGSISGINGMGWYRQAPGKQRELVAAITSGGSTNYADSVKGRFTISRDNAKNTVDLQMNSLQPEDTAVYYCYVSSTPSWGLYDDYWGQGTQVTVSS
notes: also called 2AR3-59
B8: VHH A2R3-60 (VHH)
VHH: QVQLQESGGGLVQPGGSLRLDCAASGTTVSINGMGWYRQAPGKQREFVALSTTGGVTNYADSVKGRFTISMDNAKKTVALQMNSLKPEDTAVYYCNAVASPSWGLYDDYWGQGTQVTVSS
notes: also called 2AR3-60
B9: humanized A2R3-60-60 bivalent construct version 1 (VHH)
chain: DVQLVESGGGLVQPGGSLRLSCAASGTTVSINGMGWYRQAPGKQREFVALSTTGGVTNYADSVKGRFTISRDNAKNTVYLQMNSLRPEDTAVYYCNAVASPSWGLYDDYWGQGTLVTVSSGGGGSGGGGSGGGGSEVQLVESGGGLVQPGGSLRLSCAASGTTVSINGMGWYRQAPGKQREFVALSTTGGVTNYADSVKGRFTISRDNAKNTVYLQMNSLRPEDTAVYYCNAVASPSWGLYDDYWGQGTLVTVSS
notes: also called A2R3-h60-60
B10: humanized A2R3-59-Fc construct version 1 (Fc fusion)
chain: DVQLVESGGGLVQPGGSLRLSCAASGSISGINGMGWYRQAPGKQRELVAAITSGGSTNYADSVKGRFTISRDNAKNTVYLQMNSLRPEDTAVYYCYVSSTPSWGLYDDYWGQGTLVTVSSGGGGSGGGGSDKTHTCPPCPAPEAAGGPSVFLFPPKPKDTLMISRTPEVTCVVVDVSHEDPEVKFNWYVDGVEVHNAKTKPREEQYNSTYRVVSVLTVLHQDWLNGKEYKCKVSNKALGAPIEKTISKAKGQPREPQVYTLPPSRDELTKNQVSLTCLVKGFYPSDIAVEWESNGQPENNYKTTPPVLDSDGSFFLYSKLTVDKSRWQQGNVFSCSVMHEALHNHYTQKSLSLSPG
notes: also called h59-Fc; A2R3-h59-Fc

Tests used:
[1] = biological target: HN of hPIV-3-GFP virus (on virions and on hPIV-3-infected cells) (human parainfluenza virus 3 (hPIV-3), UniProt P08492 1-572); test: cell-based or functional assay
[2] = biological target: T1, D275N- and R277T-mutant hPIV-3 HN, …; test: flow cytometry on transfected HEK293T cells (FIG. 11C)
[3] = biological target: T2, hPIV-3 hemagglutinin-neuraminidase …; test: flow cytometry on transfected HEK293T cells, 10 µg/ml (FIG. 16A)
[4] = biological target: T3, recombinant hPIV-1 HN-tetraGCN4 (human parainfluenza virus 1 (hPIV-1), UniProt P16071 138-575); test: ELISA, HN protein coated (50 ng), 1/3 dilution series (FIG. 18)
T3 construct: domain: head domain; also called hPIV-1 HN linked to tetraGCN4; not shown: strep-tag II

[5] = biological target: T4, recombinant hPIV-3 HN-dGCN4 (human parainfluenza virus 3 (hPIV-3), UniProt P08492 136-572); test: as above
T4 construct: domain: head domain; also called hPIV-3 HN linked to dGCN4; not shown: strep-tag II

[6] = biological target: T5, recombinant hPIV-1 HN-dGCN4 (human parainfluenza virus 1 (hPIV-1), UniProt P16071 138-575); test: as above
T5 construct: domain: head domain; also called hPIV-1 HN linked to dGCN4; not shown: strep-tag II

[7] = biological target: T1, D275N- and R277T-mutant hPIV-3 HN, …; test: flow cytometry on transfected HEK293T cells, VHH 1 or 0.1 µg/ml (FIG. 11C)
[8] = biological target: T2, hPIV-3 hemagglutinin-neuraminidase …
[9] = biological target: T6, hPIV-3 fusion protein (F), expressed on transfected HEK293T cells (human parainfluenza virus 3 (hPIV-3), UniProt P06828 19-539); test: flow cytometry on transfected HEK293T cells (FIG. 4)
T6 construct: whole, on cells

Binder	fold higher potency of hPIV-3-GFP neutralization than the monovalent counterpart [1] [fold]	binding result [2]	binding result [3]	binding result [7]	fold reduction of binding at 500 µg/ml of zanamivir [8] [fold]	binding result [9]	further results
B1	~50	no binding (tested: 1 or 0.1 µg/ml)					
B2	~150	no binding (tested: 1 or 0.1 µg/ml)					
B3			binds				
B4	~7.5		binds	binds			EC50 [4]: 50 mg/L; EC50 [5]: 0.02 mg/L; EC50 [6]: 167 mg/L
B5			binds				EC50 [4]: 71 mg/L; EC50 [5]: 0.018 mg/L; EC50 [6]: 32 mg/L
B6		no binding (tested: 1 or 0.1 µg/ml)			~5	no binding (tested: 1 µg/ml)	
B7				binds	2.4	no binding (tested: 1 µg/ml)	
B8				binds	1.5	no binding (tested: 1 µg/ml)	
B9			binds				
B10			binds				
